In series [1] the target is HA-tagged C96Y mutant insulin 2 (UniProt P01326).
Series [2] concerns the target HA-tagged wild-type insulin 2 (UniProt P01326).

We go through one substance from patent US20070202544.

HRD1 (from plasmid HRD1-pCMVSPORT6): the “ubiquitination of insulin-2 (IP with anti-HA, immunoblot with anti-Flag for Flag-ubiquitin)” value in series [1] is “did increase that of C96Y insulin-2”; in series [2], “HRD1 expression did not increase the ubiquitination of wild-type insulin-2”.
